Measurements reported in patent publication US6673902B2, “Cyclin D binding factor, and uses thereof” (St. Jude Children's Research Hospital, priority 1996, dated 2004).

Test system: DMP1-responsive promoter (pGL2BS2)
Test: Transactivation of luciferase reporter plasmid under control of a DMP1-responsive promoter in NIH-3T3 fibroblasts
Format: cell-based, mouse
Details: Table 4; DMP1 coexpressed with the additive named as label (DMP1 row: no additive); vector without insert set to 1.0
Text: Coexpression of a D-type cyclin with DMP1 overrides the ability of DMP1 to transactivate a luciferase gene under the control of an artificial DMP1-responsive promoter (Table 4), as well as the ability of DMP1 to inhibit cell growth.

B1: cyclin H: cyclin coexpressed with DMP1 (protein, UniProt Q61458 1-323, looked up)
Cyclin-H: MYHSSSQKRHWTFASEEQLARLRADANRKFKCKAVANGKVLPNDPVFLEPHEELTLCKYYEKRLLEFCSVFKPAMPRSVVGTACMYFKRFYLNNSVMEYHPRIIMLTCAFLACKVDEFNVSSPQFVGNLRESPLGQERALEQILEYELLLIQQLNFHLIVHNPYRPFEGFLIDIKTRYPMLENPEILRKTADDFLSRIALTDAYLLYTPSQIALTAILSSASRAGITMESYLSESLMLKENRTCLSQLLDIMKSMRNLVKKYEPPRSDEVAVLKQKLERCHSSDLALNAVTKKRKGYEDDDYVSKKPKQEEEEWTDDDLVDSL
- Luciferase Activity: 5.5
